Common to all, as to type: biochemical
The nature of series [1]: Oxidase activity testing against efavirenz. Particulars: substrate Efavirenz; Batch 1. The method in brief:
(§1)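 Reconstituted recombinant P450 with ferredoxin and ferredoxin reductase was incubated with 0.1 mg/ml substrate in 100 mM potassium phosphate pH 8.0, 5 mM MgCl2 at 27° C with shaking. Reactions were started with a G6P/NADP+/G6PDH cofactor mix, run 16-20 hours, acetonitrile-quenched, and % conversion measured by UPLC-MS.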

Series [2] can be described thus: Oxidase activity testing against tolbutamide. The method in brief:
as §1

The nature of series [3]: Oxidase activity testing against tofacitinib. Particulars: substrate Tofacitinib; Batch 1. The method in brief: as §1
Series [4] in a line: Oxidase activity testing, lyophilised recombinant P450/ferredoxin SeuF08/ferredoxin reductase SCF15A against ambroxide. The protocol: Lyophilised material of recombinant P450, ferredoxin and ferredoxin reductase proteins was made as described in Example 4 and reconstituted in high purity water to the original volume. Biocatalysis was performed with shaking incubation at 27° C. in the following conditions: 100 mM potassium phosphate pH 8.0, 5 mM MgCl2 (both present in the reconstituted enzyme preparation) and 0.1 mg/ml substrate compound such as ambroxide (Sigma-Aldrich, UK), carbamazepine (Sigma-Aldrich, UK), diclofenac (Sigma-Aldrich, UK), tivantinib (MedChemtronica, Sweden), clarithromycin (Tokyo Chemical Industry, Japan), sclareol (Sigma-Aldrich, UK), celecoxib (LC Laboratories, USA), buparvaquone (Sigma-Aldrich, UK), BIRB796 (MedChemExpress, USA), vanoxerine (CiVentiChem, USA), valsartan (Tokyo Chemical Industry, Japan), ruxolitinib (LC Laboratories, USA), perindopril (Selleckchem, USA), solifenacin (Key Organics, UK), 7-ethoxycoumarin (Tokyo Chemical Industry, Japan), tofacitinib (LC Laboratories, USA), ebastine (Key Organics, UK), efavirenz (Key Organics, UK), propanalol (Sigma-Aldrich, UK) and tolbutamide (Key Organics, UK).
Concentrations of P450, ferredoxin and ferredoxin reductase were as extracted (Example 4). Reactions were initiated by addition of 10× stock of cofactor mixture (50 mM G6P, 10 mM NADP+, 10 UN/ml G6PDH) to provide a final volume of e.g., 10 μl to 90 μl for 100 μl total reaction volumes. After 16-20 hours, reactions were extracted with an equal volume of acetonitrile, centrifuged to remove precipitated proteins and conversion assessed by UPLC-MS analysis.
UPLC Data were Obtained as Follows: • Column: Acquity UPLC BEH Shield RP18 1.7 μm 2.1 mm i.d. 50 mm length • Solvents: H2O, B: Acetonitrile, both with 0.1% Formic acid • Flow rate: 1.0 ml/min • Detector: Waters Acquity UPLC PDA (UV-Vis detection) and Waters Acquity UPLC QDA (MS)
To confirm the identities of reaction products where known, their chromatographic retention time, mass and ultraviolet spectra were compared with those of authentic metabolite standards.
Representative results for the % conversions of ambroxide to oxidised (+16 Da) products for single point mutants at position T109 are shown in Table 2 below.

Series [5] can be described thus: Oxidase activity testing against ruxolitinib. The note with it: substrate Ruxolitinib; Batch 1. The method in brief:
as §1

The nature of series [6]: Oxidase activity testing against 7-ethoxycoumarin. Particulars: substrate 7-ethoxycoumarin; Batch 1. In a few lines:
as §1

Series [7] in a line: Oxidase activity testing against perindopril. The note with it: substrate Perindopril; Batch 1. In a few lines:
as §1

Series [8] can be described thus: Oxidase activity testing against ebastine. The note with it: substrate Ebastine; Batch 1. In a few lines:
as §1

Series [9] can be described thus: Oxidase activity testing against valsartan. Particulars: substrate Valsartan; Batch 1. In a few lines:
as §1

Series [10] can be described thus: Oxidase activity testing against sclareol. Particulars: substrate Sclareol; Batch 1; UPLC-MS UV or MS peak areas. In a few lines:
as §1

The nature of series [11]: Oxidase activity testing against vanoxerine. The note with it: substrate Vanoxerine; Batch 1. The method in brief: as §1
A short description of series [12]: Oxidase activity testing against buparvaquone. The note with it: substrate Buparvaquone; Batch 1. The method in brief: as §1
The nature of series [13]: Oxidase activity testing against celecoxib. Particulars: substrate Celecoxib; Batch 1. The method in brief:
as §1

Series [14] can be described thus: Oxidase activity testing against solifenacin. Particulars: substrate Solifenacin; Batch 1. The method in brief:
as §1

Series [15] is described as follows: Oxidase activity testing against clarithromycin. The note with it: substrate Clarithromycin; Batch 1. In a few lines:
as §1

Series [16] can be described thus: Oxidase activity testing against BIRB796. Particulars: substrate BIRB796; Batch 1. The method in brief:
as §1

Series [17] is described as follows: Oxidase activity testing against propanalol. Particulars: substrate Propanalol; Batch 1. The method in brief: as §1
The mark [18] stands for this setting: oxidised ambroxide product, relative MS peak area.

B1: SeuC10M2: P450SeuC10 with T109A mutation, SEQ ID NO: 8 (protein)
chain: MKIGTTHLTRLRGLSMTELTDITGPAAQAETVAFPQDRTCPYHPPTGYDPLRDGRPLSRVTLYDGREVWLVTAQATARALLADPRLSTDRRRDGFPVPTPRFAAGRDRALALLGLDDPEHHRQRRLLIPSFTLKRATAQRPWIQRIVDELLDAMIARGPVADLVSAFALPVPSMVICELLGVPYADHEFFEEQSRRLLRGPTGADTTDARDRLEAYLGDLIDAKAKEAEPGDGILDDLVHNRLRAGELDRSVLVSLAVILLVAGHETTANMISLGTYTLLQHPERLAELRADPSLLPAVVEELLRMLSIAEGLQRLALEDIEIDGITIRAGEGVLFSTSVINRDTAVYEDPDDLDFHRADRHHVAFGFGIHQCLGQNLARAELEIALGSLFTRLPGLRLAAPAEEIPFKPGDTVQGMLELPVTW
modifications: SeuC10M2
Take B1: the Average % conversion worked out at 0.9% in [1]; 52.3% in series [2] (substrate Tolbutamide, Batch 1); 47.1% in [3]; 93.2% in series [4] (substrate ambroxide, relative MS peak areas); 92.8% in series [5]; 32.4% in series [6]. Moreover, the Average % conversion in [7] amounted to 30.7%; in series [8], 6.8%; in series [9], 17.6%; in series [10], 36.5%; in [11], 87.2%; in series [12], 28.7%. Besides, the Average % conversion in series [13] came out at 24.7%; in series [14], 7.2%; in [15] it was 0%; in [16], 29.5%; in [17], 0%. Also, the “conversion of tolbutamide compared to wild-type (in words)” value in series [2] is given as “significantly increased conversion”. Further, the “+16 Da (1.50 min) 253 m/z” value in series [4] (setting [18]) is 85.1%. Further, the “+16 Da (1.60 min) 253 m/z” value in series [4] (setting [18]) was 7.0%. The “+16 Da (2.04 min) 253 m/z” value in [4] (setting [18]) is 0.0%. In addition, the “Ambroxide (2.22 min) 237 m/z” value in series [4] (remaining substrate, relative MS peak area, 0.1 mg/ml ambroxide, 27° C., 16-20 hours) amounted to 6.8%.

These data come from US20240263208A1, “CYTOCHROME P450 ENZYME” (HYPHA DISCOVERY LTD., priority 2021, published 2024).
